The DeepSol protein solubility set

Test: soluble on expression in E. coli; label from the status in PepcDB or PDB records

Row | Sequence | soluble on expression in E. coli
1 | MRKEAIYHRPADNFAYAYDSETLHLRLRTKKDDIDRVELLHGDPYDWQNGAWQFQMMPMRKTGSDELFDYWFAEVKPPYRRLRYGFVLYSGEEKLVYTEKGFYFEVPTDDTAYYFCFPFLHRVDLFEAPDWVKDTVWYQIFPERFANGNPSISPEGSRPWGSEDPTPTSFFGGDLQGIIDHLDYLVDLGITGIYLTPIFRSPSNHKYDTADYFEVDPHFGDKETLKTLIDRCHEKGIRVMLDAVFNHCGYEFAPFQDVWKNGESSKYKDWFHIHEFPLQTEPRPNYDTFAFVPQMPKLNTANPEVKRYLLDVATYWIREFDIDGWRLDVANEIDHEFWREFRQEVKALKPDVYILGQIWHDAMPWLRGDQFDAVMNYPFTDGVLRFFAKEEISARQFANQMMHVLHSYPNNVNEAAFNLLGSHDTSRILTVCGGDIRKVKLLFLFQLTFTGSPCIYYGDEIGMTGGNDPECRKCMVWDPMQQNKELHQHVKQLIALRKQYRSLRRGEISFLHADDEMNYLIYKKTDGDETVLVIINRSDQKADIPIPLDARGTWLVNLLTGERFAAEAETLCTSLPPYGFVLYAIEHW | soluble
2 | MGSDKIHHHHHHMETTKLGNLKLYGAGHAAGGAYHNVSIKGEGIVGEGLSAVGCRIYGTGLFLGKAETERLRVLGESECKGDLTAGKINIYGTMKVSGSLQFDRFNLKGQTEIGGNMTGESCDVKGKLSVIGDCETEMFHVTGCVDVSGLLNSGEIKLGLSHDINHVQEIGGTTITVKRRASFFSRKKGKLIADVIEGDRVYLENTEAAVVRGKEVIIGPGCSIGTIEYEYKCECDPHSQIKEKTKL | not soluble
3 | AFRGLRKGQFFDENALMLIATIAAFFVGAYEESVSIMVFYSAGEFLQKLAVSRSKKSLKALVDVAPNLAYLKKGDELVSVAPEDLRVNDIVVVKVGEKVPVDGVVVKGESLLDERALSGESMPVNVSENSKVLGGSLNLKAVLEIQVEKMYKDSSIAKVVDLVQ | not soluble
4 | MPHSYPALSAEQKKELSDIALRIVAPGKGILAADESVGSMAKRLSQIGVENTEENRRLYRQVLFSADDRVKKCIGGVIFFHETLYQKDDNGVPFVRTIQDKGIVVGIKVDKGVVPLAGTDGETTTQGLDGLSERCAQYKKDGADFAKWRCVLKISERTPSALAILENANVLARYASICQQNGIVPIVEPEILPDGDHDLKRCQYVTEKVLAAVYKALSDHHVYLEGTLLKPNMVTPGHACPIKYTPEEIAMATVTALRRTVPPAVPGVTFLSGGQSEEEASFNLNAINRCPLPRPWALTFSYGRALQASALNAWRGQRDNAGAATEEFIKRAEVNGLAAQGKYEGSGEDGGAAAQSLYIANHAYL | soluble
5 | MGSDKIHHHHHHMNILEYENYHEDKTHVELTFPYNTYLCSIPLDFSGVPLHWHDDMELIYIKKGCGHISVDFKEYHVTAPSLVLILPGQLHSIDQYMDESMEYENIIFSLSMLLPGKYDYTKEDFLTPLLAGRFTVPTVFTPVYPYYEDVVAPIDACDEICKTMPQGYQLYIKSKLYEFFFVLDNRCRNLTKPLKSKKTLDKMKVVLKYVENNYADKISIADIADVAGFSESHFMRYFKETMGTSFVDYLKDYRLTMAARLLQSSDSSVLSISGEVGFESLSYFNRAFKKHYGMTPLQYRKGS | not soluble
6 | MIVSMIAALANNRVIGLDNKMPWHLPAELQLFKRATLGKPIVMGRNTFESIGRPLPGRLNIVLSRQTDYQPEGVTVVATLEDAVVAAGDVEELMIIGGATIYNQCLAAADRLYLTHIELTTEGDTWFPDYEQYNWQEIEHESYAADDKNPHNYRFSLLERVK | soluble
7 | MSLGAWPTAPITIVVPFAAGQTGDIIARLLGKELAERLKQPFVVDNKGGGGGRIGTAFVAKAKPDGYTLLMTSTGPYAIAPALYPRTMQYDPVRDFTGIAETATTPQIIAVSPKSGINTFADLVKQAKKSDMSYGSAGNGSTQHLTMELLKKELNFPLVHVPFKGSSESKTQVISGMIPVTSDSLPAIYTNIKSGQMKAIAVVDKQRSAYLPDVPTLAESGFPSLSTVAFFGLVAPKNTPKEVVNLLNKNLTEIYRTPDFQQKMKELAMTPPAEKTAEQFTAYLTEEVARWKKIVQDSNVKVEEGHHHHHH | soluble
8 | GSSGSSGMSSMTQNLREVMKVMFKVPGFDRVLEKVTLVSAAPEKLICEMKVEEQHTNKLGTLHGGLTATLVDSISTMALMCTERGAPGVSVDMNITYMSPAKIGEEIVITAHILKQGKTLAFASVDLTNKTTGKLIAQGRHTKHLGNSGPSSG | soluble
9 | MNGAAQADLWRLVVLNTYGGVYMDIDATLVWPLDKLLGDSQELYIRIKNNTEITNYFIATAPNNPDLQATIEQVVYNVNHYEPSMGVYHSTGPTVLNNILSAKAVIHTQDRKYVCIQGTFTNEHFQYIDKPRGKWLEHHHHHH | not soluble
10 | MGHHHHHHSHMSPVLTQHVSQPITLDEQTQKMKRHLLQDIRRSAYVYRVDCGGCNACEIEIFAAITPVFDAERFGIKVVSSPRHADILLFTGAVTRAMRMPALRAYESAPDHKICVSYGACGVGGGIFHDLYSVWGGSDTIVPIDVWIPGCPPTPAATIHGFAVALGLLQQKIHAVDYRDPTGVTMQPLWPQIPPSQRIAIEREARRLAGYRQGREICDRLLRHLSDDPTGNRVNTWLRDADDPRLNSIVQQLFRVLRGLHD | not soluble
11 | KTGFFVGPMAEFTLPIIGIGADVAALYSQTDLGADGEKTMKLKTFAVPVNLKWSFGLGSMLGAYIAAGPQFDFNIGNKTWTRELSLKKSTTSFNVGAGLKLIRHLQLGVNYNFALSKTGTYEYYTEGESGDGHHSVNIKNNTWQVSLAYLF | not soluble
12 | MVKTGIEDVCGHWGHNFWRDKFKKFDDKYLRNVLIRENQPKSSIVSLYKKLEIKHAIEMAETGMISTVPTFASLNDCREEKIRKVTSSETDEIRELLSRNLYQIRQRTLSYNRHSLTADTSERQAKEILIRRRHSLRESIRKDSSLNREHRASTSTSRYLSLPKNTKLPEKLQKRRTISIADGNSSSSDAHAGTTVLNLLEHHHHHH | not soluble
13 | MSIWKEAKDASGRIYYYNTLTKKSTWEKPKELISQEELLLRENGWKAAKTADGKVYYYNPTTRETSWTIPAFEKK | soluble
14 | MGSDKIHHHHHHMGRRLRVEYLGAMYHVVQRGNNREFIFGRPDERDYLIEQVGNAVKVDGVTVFAYVVMSNHYHLLLRTDGEFLSKVMHRVNTRYSRFFNCDSGRDRTGVVFEGRYKAILVQNDDYLLSLVRYIHRNPLRAGIVSRFCDYRWSSDACYRQQGNGPGGGDFVNCDLILRMFSDKKQIALREYKRFMENDDGKDWENIPCIGDDSFAQLAEPRKEKAGRVSLDEILINTGVDNEEFQLIKQGSRKRLLQKYKIAFTGEAIGQGYTMREIGQHIKLSHVAISHLFNSKQDSK | not soluble
15 | MRLLVADDHPLFRLGLKAALEAEGLEVVAEAGTGEEALVQALEKAPDAVLLDLRMPGMDGLTCARRLREMGYRGLVILLTTYQEPALLLEAYKAGADAYLSKELSAPELKRRLLRIRQGEERLTAPDIPALTPREEEVLRLLAEGLSTKEIARALRLSPETVRSHLESLYAKLEARNRVEALSRARSLGLLP | soluble
16 | MAHHHHHHSLEIRAFSKYRKRALSLVRGKVLEIGVGTGKNLPYYPKDVEVIGIDFSRNMLKKAEERRRKLRLENVTLLYMDAQDLEFEDNTFDTIVSTFVFCTVPDPIKGLKEAYRVLKPGGRAIFLEHMKSESKLLNVPLYLMEPFIRTLLGTSLLRETQRNIERAGFKIEKVENLFYDIVRLIIATKDEG | soluble
17 | GPGSMALRDIVGKQMLRQTVLQPRLKLPAGRVVSIEEGWRLARLVREGEEHASAVAVEAAEGMVAPSSVVLEDDVSKRILLLRHKKRKEGDTKAAVRYAQRSRAVPVVGKVAPEVRDIALNVLRKNPIGRAELRARHERSKAKRATKGSDSTRAKRAGRL | not soluble
18 | MGHHHHHHSHMLAWHVLMGNQVIWKSRDVDLVQSAFEVLRTMLPVGCVRIIPYSSQYEEAYRCNFLGLSPHVQIPPHVLSSEFAVIVEVHAAARSTLHPVGCEDDQSLSKYEFVVTSGSPVAADRVGPTILNKIEAALTNQNLSVDVVDQCLVCLKEEWMNKVKVLFKFTKVDSRPKEDTQKLLSILGASEEDNVKLLKFWMTGLSKTYKSHLMSTVRSPTASESRN | not soluble
19 | MTLPIRNVAIIAHVDHGKTTLVDALLKQSGIFREGEDVPDCVMDSNALERERGITILSKNTAVRYKETLINIVDTPGHADFGGEVERVLGMVDGCLLIVDANEGPMPQTRFVLKKALEKGLRPIVVVNKIDRGQADPHVAVDKVLDLFLELGADEDQCDFPYLFASGMGGYAKENLEAESVDMQPLFDAILRHVPAPVGDPNKPLQLQVTTLDYSEYLGRIVIGRIHNGTIRAGQQAALVVEDGSIVKGKITKLMGFEGLKRVEMTEATAGYIVAVAGFADAYIGETITDPNEPQALPLIKVDEPTLQMTFWVNDSPFAGQEGKLVTSRQVRDRLFRELETNVALRVEETDSPDKFLVSGRGELHLGILIETMRREGFEFQVSQPQVIYRTVNGQPCEPYELLVLDVPADAVGSCIERLGQRKGEMQDMQPVAGDRTQLEFVIPARGLIGFRGEFMRMTRGEGIMNHSFLDYRQLSGDIEARNKGVLISFEEGISTFYAMKNAEDRGSFFITPGTKVYRGMIVGEHNRPQDLELNVCKTKQLTNHRASGGDELVQLQAPVDMSLERALEYIGPDELVEVTPQSIRLRKMAKKLAKR | not soluble
20 | MNLKDKILGVAKELFIKNGYNATTTGEIVKLSESSKGNLYYHFKTKENLFLEILNIEESKWQEQWKKEQIKCKTNREKFYLYNELSLTTEYYYPLQNAIIEFYTEYYKTNSINEKMNKLENKYIDAYHVIFKEGNLNGEWSINDVNAVSKIAANAVNGIVTFTHEQNINERIKLMNKFSQIFLNGLSKHHHHHH | soluble
21 | MSNQRDYTLIIDKSGSMSIIEPKFQKSRWELVQESTLALARKCDQLDANGITVYTFSGKFRRYDNVNASKVEQIFQENEPVGGTNLTAVLQDALNNFLQRKKSNQAPTGETILVITDGEPNDRRSVFEIIIQASKCLDADEELAISFMQIGNDPSATKFLQALDDQLMEVGAKFDIVDTVTFDEMEDLTLTEVLLNAIEDLEHHHHHH | soluble
22 | MANDGGAKLSKNLLRMKFMQRGLDAEVKKQLDEEEKRIISDEHWFLDLPELKAKENHIIEERSFVPCEDLVYGRMSFKGFNPDVEKLMLLMNAPREEEDEEEEDESMNKMETDITDEEMAKRYQSLVESMRKKFAKKRDRSAVSNKEDVNCNVTDDIRPKRAFMKPQD | soluble
23 | MRYDVVIIGGGLAGLTCGIRLAEQGKRCAIVSAGQNALHFSSGALDLLSHLPDGQPVSQPLDALDELARQAPHHPYSRMGAAAVAALLPQVEALLERSNISLLGNHQQNHWRMTPLGKFRACWLSPADGVTRGLADSHFGDNPLIAGIEGFLDFQSRIVAGTLQTQGIAARSDELKLPVLDRLRQNPSEFRAVNIARLLDRPENRSALVEELSLLANGNDAIIMPACLGLDSPEIVSELADALGKPVLLLPTLPPSVLGLRLHQALSQRFRQLGGMVMPGDRAVRASLSSQEIAVHSHHHRDIPLRAKHAVLASGSFFSNGLVTQFDRVTEPVFGLDVRFAEQREGWSQQDVFAPQPYMQFGAIVDEHLHPRIAGETVNNLYAIGAVLEGFDPIVQGCGAGVSLLSALHVAEQILKEGNPLEHHHHHH | soluble
24 | MDSRIAIYVLVSASLLYLVNCHKLVHYFNLKINGSDITNTADILLDNYPIMTFDGKDIYPSIAFMVGNKLFLDLYKNIFVEFFRLFRVSVSSQYEELEYYYSCDYTNNRPTIKQHYFYNGEEYTEIDRSKKATNKNSWLITSGFRLQKWFDSEDCIIYLRSLVRRMEDSNKNSKKT | not soluble
